Results reported in patent US11739132B2, “Separation moieties and methods of use thereof” (Werewolf Therapeutics, Inc., priority 2019, dated 2023).
No end group written: not given here.

Assays:
Thrombin = target: T1, Thrombin (Homo sapiens, UniProt P00734); assay: 30-mer library counter-screening MSP-MS, Thrombin; type: biochemical
T1 construct: purchased R&D Systems (Bio-techne) 2196-SE-200
Method: (§1) Protease specificity screening was performed using Multiplexed Substrate Profiling by Mass Spectrometry (MSP-MS), the method described in, e.g. O'Donoghue A. J. et al., Nat Methods., 2012; 9(11): 1095-1100. This method employs a physico-chemically diverse peptide library as substrates for proteases, and reactions are monitored over time with mass spectrometric detection of cleaved products. The resulting cleavages are assessed for specific cleavage in the enzyme-treated sample by comparison with results from a no-enzyme control incubation.
(§2) Enzymes were activated and assayed following the manufacturer's recommendations.
Thrombin was activated following the manufacturer's recommended conditions by pre-incubation with the enzyme with thermolysin for 15 min, and then the thermolysin was quenched with 1,10 phenanthroline treatment. Activated thrombin was assayed at 1.2 nM in activation buffer: 50 mM TRIS HCl, 10 mM CaCl2, 150 mM NaCl, 0.05% (w/v) Brij-35, pH 7.5.
(§3) Counter-screening was performed against the enzymes Thrombin, Factor Xa and Hepsin using this library as well, and for calibration of activity, a positive-control peptide bearing favorable motifs for these enzymes was also designed (ALU30-19).
(§4) Catalytic efficiency (kcat/KM) estimations were used to rank the top cleaved substrates in the MSP-MS reaction. Peptides were quantified by mass spectrometric label-free quantitation from the MS1 precursor ion peak areas for each peptide. Enzyme progress curves were modeled from six-time point measurements in GraphPad Prism. Data were fitted using non-linear least squares fitting to the first order kinetics equation:
(§5) [formula] where Y=percent product formation or substrate consumption, and t=time. The observed rate is a function of the enzyme concentration [E0], and an observed catalytic efficiency (kcat/KM) in units M^−1s^−1
(§6) Counter-screening with Thrombin, Factor Xa and Hepsin was also performed following the same analysis. The library peptide Alu30-19 was designed to include authentic sites for each enzyme, for comparison of overall cleavage efficiency as well as cleavage site specificity within each motif. The substrate designed for Factor Xa has the motif FNPR|TFGS (SEQ ID NO: 248), derived from the Factor Xa cleavage site in Thrombin. The substrate motif for Thrombin was FPR|, a common tool substrate motif. The substrate motif for hepsin was RKRR|GSRG (SEQ ID NO: 249) from filaggrin.

Hepsin = target: T2, Hepsin (Homo sapiens, UniProt P05981); assay: 30-mer library counter-screening MSP-MS, Hepsin; type: biochemical; conditions: for Apparent catalytic efficiency, hepsin: order of magnitude
T2 construct: purchased R&D Systems (Bio-techne) 4776-SE
T2 sequence (P05981 163-417 limits assumed): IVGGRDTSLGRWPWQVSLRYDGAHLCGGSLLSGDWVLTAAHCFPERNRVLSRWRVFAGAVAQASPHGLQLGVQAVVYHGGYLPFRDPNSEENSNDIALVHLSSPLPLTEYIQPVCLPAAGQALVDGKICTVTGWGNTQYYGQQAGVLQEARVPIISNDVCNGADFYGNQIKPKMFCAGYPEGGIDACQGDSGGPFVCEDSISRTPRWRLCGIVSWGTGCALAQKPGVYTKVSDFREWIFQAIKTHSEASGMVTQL
T2 sequence (P05981 1-162 partner limits assumed): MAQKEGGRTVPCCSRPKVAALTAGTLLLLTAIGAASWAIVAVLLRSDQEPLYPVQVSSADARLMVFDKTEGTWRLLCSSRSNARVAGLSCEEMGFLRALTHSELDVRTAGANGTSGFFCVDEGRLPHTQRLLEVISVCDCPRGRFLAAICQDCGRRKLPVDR
Method: as §1, §2
Hepsin was pre-activated overnight at 37° C. in the manufacturer recommended buffer: 100 mM TRIS, 10 mM CaCl2, 150 mM NaCl, 0.05% Brij-35, pH 8.0. Activity was measured with 2.4 or 24 nM enzyme in the buffer: 50 mM TRIS HCl at pH 7.4.
as §3, §4, §5, §6

FAPα = target: T3, FAPα (Homo sapiens, UniProt Q12884); assay: 30-mer tandem linker library MSP-MS, FAPα; type: biochemical
T3 construct: purchased R&D Systems (Bio-techne) 930-ADB-010
T3 sequence (Q12884 1-760): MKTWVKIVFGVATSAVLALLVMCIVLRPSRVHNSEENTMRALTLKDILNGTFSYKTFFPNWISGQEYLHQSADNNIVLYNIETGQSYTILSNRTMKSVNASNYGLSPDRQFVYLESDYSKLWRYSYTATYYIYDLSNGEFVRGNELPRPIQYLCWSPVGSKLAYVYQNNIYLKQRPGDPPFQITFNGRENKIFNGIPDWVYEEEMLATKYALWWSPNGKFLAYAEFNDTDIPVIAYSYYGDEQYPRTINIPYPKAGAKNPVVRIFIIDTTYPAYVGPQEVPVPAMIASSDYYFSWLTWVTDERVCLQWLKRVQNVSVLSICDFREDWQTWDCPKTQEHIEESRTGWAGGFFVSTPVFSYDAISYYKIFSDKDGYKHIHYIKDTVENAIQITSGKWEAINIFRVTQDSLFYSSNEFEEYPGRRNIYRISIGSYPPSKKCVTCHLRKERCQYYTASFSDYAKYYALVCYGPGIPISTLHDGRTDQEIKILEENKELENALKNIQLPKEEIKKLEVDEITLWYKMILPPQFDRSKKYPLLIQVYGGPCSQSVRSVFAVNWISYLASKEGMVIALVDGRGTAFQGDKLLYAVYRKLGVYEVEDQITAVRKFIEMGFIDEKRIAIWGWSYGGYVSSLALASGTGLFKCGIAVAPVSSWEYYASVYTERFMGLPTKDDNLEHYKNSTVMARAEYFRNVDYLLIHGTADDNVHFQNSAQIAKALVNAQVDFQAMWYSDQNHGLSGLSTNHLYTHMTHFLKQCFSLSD
Method: as §1, §2
FAPα activity was tested with fluorescence detection using a generic Z-GP-AMC substrate. For FRET assays, the final enzyme concentration was 5 nM and the buffer was 50 mM TRIS HCl, 1 M NaCl, 1 mg/mL BSA, pH 7.5.
To analyze the catalytic efficiency of candidate tandem linker designs, a tailored library approach using MSP-MS was applied. For the tailored library, a set of nineteen synthetic peptides, 30 amino acids in length (30-mers), were designed to test whether sequence context affects the efficiency of cleavage. Peptides were assayed in a multiplex format together as a substrate library with individual recombinant enzymes, using MSP-MS. For quantitative comparisons, kinetic analysis was performed over a time course, and results are reported either as a catalytic efficiency kcat/KM for well-behaved first-order kinetics, or as observed rates as kobs for more complex kinetic behavior.
as §4, §5

[1] = system: conditioned media from tumor, myofibroblast and YAMC cell lines; assay: FRET steady-state kinetics of conditioned media (enzyme equivalents); type: biochemical, mouse; conditions: for Secreted activity in conditioned media, steady-state kinetics: tumor cell lines
Source text: (§7) Conditioned media and cell lysate samples were received from Charles River Laboratories for the murine colon cancer cell lines: MC38 (epithelial), CT26 (fibroblast), and CT26 transduced with a lentivirus for doxycyclin-inducible expression of MMP9 (CT26 pLVX MMP9-5T4+dox). An immortalized mouse intestinal myofibroblast cell line (ABM Good #T0565) was used as a control stromal cell line, grown under manufacturer recommended conditions. Conditioned media and cell lysate samples were also received for screening purposes from ABM Good for the immortalized mouse colonic epithelial cell line YAMC (ABM Good #T0567).
(§8) In the end-point screening assays, a fixed titer of 10× concentrated sample and a substrate concentration of 10 μM was used. Values reported in the end-point experiments are initial velocity measurements, in relative fluorescence units (RFU) per second. End-point measurements are a starting point for a screen, but the rate of the reaction is non-linearly related to substrate concentration. Therefore, a more accurate representation of activity would be given by steady-state kinetic measurements covering a range of substrate concentrations. To compare activity across cell lines, the data were treated with a Michaelis-Menten model, and the concentration of equivalent enzyme units [E0] was solved.
Accordingly, initial velocity was measured as a function of substrate concentration, using a 2-fold dilution series from 250 to 1 μM. Data were fitted using non-linear least squares fitting with GraphPad Prism software v 8.0 to the Michaelis-Menten equation:
[formula] where kcat is the rate of product formation under steady-state conditions in units (s^−1), and KM is the Michaelis constant that gives the substrate concentration in molar units (M) at which half maximum velocity of the reaction is produced for a given enzyme, [E0] is the enzyme concentration, and [S] the substrate concentration in (M).
In the assays where purified recombinant enzyme is used, the Michaelis-Menten parameters are as classically defined above. For conditioned media samples, the effective titer of conditioned media per assay was adjusted to approximately a 2× concentrate of the original unprocessed media samples to assure that the detection range matched the signal produced. The enzyme component in the calculation is redefined as a mixture of possible proteases that contribute to the cumulative observed activity, each with intrinsic reactivity toward a substrate. In this case, it is more appropriate to consider kcat and KM as macroscopic constants that represent the overall efficiency of catalysis, and E0 is an enzyme equivalent, expressed in units of concentration. To solve the data fit, kcat/KM can be fixed at that of the recombinant enzyme and enzyme equivalents per cell culture volume can be output. The effective titer of enzyme equivalents in this case can be used to compare the activity produced by the different cell lines.
An immortalized mouse colonic epithelial cell line (YAMC) was used to test activity in the presence of additional control “normal” epithelial cells. YAMC's are given the calculated enzyme equivalents (nM) resulting from all of these steady state experiments, to allow for comparison of the amount of equivalent activity per sample. For example, the YAMC control epithelial cell line produced activity with the ADAM17_2 substrate equivalent to that of 0.52±0.03 nM of ADAM17 recombinant enzyme. This cell line compares directly to MC38, also of epithelial origin, which had activity equivalent to that of 0.32±0.03 nM of ADAM17 recombinant enzyme. […] This cell line required non-standard cell culture conditions, including growth with murine IFNγ, and at low temperature to maintain, and may not be fully representative of epithelial cell lines.

[2] = system: conditioned media from MC38, CT26, CT26 pLVX MMP9-5T4+dox and myofibroblast cell lines; assay: FRET end-point screen of conditioned media; type: biochemical, mouse; conditions: for Ratio of tumor vs control activity, end-point screen: three tumor cell lines vs myofibroblast cell line, complete (+FBS) media, 10 μM substrate
Source text: Proteolytic activity was screened in the conditioned media samples by fluorescent resonance energy transfer (FRET) assays with the substrates listed in Table 10.
as §7
Conditioned media samples were prepared according to the standard protocol using logarithmic phase cells. Briefly, cells were grown for 16h in either serum-free media or in complete media containing 10% fetal bovine serum (FBS). After conditioned media collection, the adherent cells were washed then lysed on plate with non-denaturing lysis buffer to produce a lysed “cell pellet” to capture any activity that remained associated with the cells. All cell culture-derived conditioned media samples, cell lysates from Charles River Laboratories, and cell lysates derived internally were processed with identical methods, to allow comparison between samples.
The resulting conditioned media was buffer exchanged with PBS and concentrated to 10× the original titer as a stock solution.
FBS background controls were therefore used for baseline subtraction at each concentration of substrate throughout the FRET experiments.
as §8

Sequence: GALFKSSFPSGGGPAGLYAQGGSGKGGSGK [Alu30-1]
- Relative efficiency of 30-mer peptide cleavage by thrombin (Thrombin): most rapidly cleaved in the library

Sequence: GGALFKSSFPGPAGLYAQPLAQKLKSSGGK [Alu30-13]
- Relative efficiency of 30-mer peptide cleavage by thrombin (Thrombin): cleaved at lower efficiency

Sequence: GGGALFKSSFPLAQKLKSSPGGPAGIGGGR [Alu30-8]
- Apparent catalytic efficiency, hepsin (Hepsin): ~10^5 M^−1s^−1
- Relative efficiency of 30-mer peptide degradation by FAPα (FAPα): not cleaved

Sequence: GGPLAQKLKSSALFKSSFPGPAGLYAQGGR [Alu30-12]
- Apparent catalytic efficiency, hepsin (Hepsin): ~10^5 M^−1s^−1
- Relative efficiency of 30-mer peptide cleavage by thrombin (Thrombin): cleaved at lower efficiency

Sequence: GPAGLYAQ (also: Mca fluorophore and Dnp quencher, places not given here) [MMP14_1, FRET substrate with Mca fluorophore and Dnp quencher]
- Secreted activity in myofibroblast conditioned media, steady-state kinetics [1]: not in the myofibroblast cell line
- Secreted activity in conditioned media, steady-state kinetics [1]: significant measurable activity
- Substrate cleavage activity in the end-point screen ([2]; conditioned media): high activity
- Substrate cleavage activity, control myofibroblast cell line ([2]; end-point screen, conditioned media): lowest activity
- Ratio of tumor vs control activity, end-point screen [2]: approximately 57 fold
- Cleavage of motif by FAPα (FAPα; at PGGP|AGIG and GP|AGLYAQ respectively): able to cleave

Sequence: GPAGMKGL (also: Mca fluorophore and Dnp quencher, places not given here) [MMP9_1, FRET substrate with Mca fluorophore and Dnp quencher]
- Secreted activity in conditioned media, steady-state kinetics [1]: Secreted activity was measured
- Substrate cleavage activity in the end-point screen ([2]; conditioned media): high activity
- Ratio of tumor vs control activity, end-point screen [2]: approximately 4 fold

Sequence: KGGGPAGLYAQGPAGLYAQGPAGLYAQGSR [Alu30-3]
- Relative efficiency of 30-mer peptide degradation by FAPα (FAPα): highest cleavage activity
- Relative efficiency of 30-mer peptide cleavage by thrombin (Thrombin): most rapidly cleaved in the library

Sequence: KSGPGGPAGIGALFFSSPPLAQKLKSSGGR [Alu30-18]
- Relative efficiency of 30-mer peptide cleavage by thrombin (Thrombin): lower cleavage activity

Sequence: LAQKLKSS (also: Mca fluorophore and Dnp quencher, places not given here) [ADAM17_2, FRET substrate with Mca fluorophore and Dnp quencher]
- Calculated enzyme equivalents (ADAM17 recombinant enzyme) ([1]; MC38): 0.32 ± 0.03 nM
- Calculated enzyme equivalents (ADAM17 recombinant enzyme) ([1]; YAMC control epithelial cell line): 0.52 ± 0.03 nM
- Secreted activity in myofibroblast conditioned media, steady-state kinetics [1]: essentially undetectable
- Ratio of tumor vs control activity, end-point screen [2]: approximately 3 fold

Sequence: LAQRLRSS (also: Mca fluorophore and Dnp quencher, places not given here) [ADAM17_1, FRET substrate with Mca fluorophore and Dnp quencher]
- Relative efficiency of cleavage by hepsin (Hepsin): less efficiently cleaved than ADAM17_ 2

Sequence: RGGALFKSSFPLAQKLKSSGPAGLYAQGGK [Alu30-14]
- Apparent catalytic efficiency, hepsin (Hepsin): ~10^5 M^−1s^−1

Sequence: RGGPAGLYAQGGPAGLYAQGGGPAGLYAQK [Alu30-4]
- Relative efficiency of 30-mer peptide degradation by FAPα (FAPα): highest cleavage activity
- Relative efficiency of 30-mer peptide cleavage by thrombin (Thrombin): efficient substrate

Sequence: RGPGGPAGIGPLAQKLKSSALFKSSFPGGG [Alu30-9]
- Apparent catalytic efficiency, hepsin (Hepsin): ~10^5 M^−1s^−1

Sequence: RGPLAQKLKSSALFKSSFPGGPAGIGGGGK [Alu30-7]
- Relative efficiency of 30-mer peptide degradation by FAPα (FAPα): not cleaved
